Columns and labels:
[1] = target: T1, Gst-Cgi-58 (mouse, UniProt Q9DBL9 1-351, Sulfo-SBED cross-linker covalently linked (label transfer); fluorescent label NT-495 by NHS coupling (microscale thermophoresis)); assay: MST; Gst-tagged Cgi-58 labelled with NT-495 (NHS coupling) at constant amount; unlabeled Strep-tagged A-Fabp 8 nM to 250 μM; 100 mM Tris, pH 8.0, 150 mM NaCl, 1 mM EDTA, 0.05% Tween 20; Monolith NT.115, duplicate; conditions: both partners purified
T1 construct: comparative gene identification-58 (Cgi-58), mouse; also called Gst-tagged Cgi-58; mouse Gst-Cgi-58
T1 sequence (looked up): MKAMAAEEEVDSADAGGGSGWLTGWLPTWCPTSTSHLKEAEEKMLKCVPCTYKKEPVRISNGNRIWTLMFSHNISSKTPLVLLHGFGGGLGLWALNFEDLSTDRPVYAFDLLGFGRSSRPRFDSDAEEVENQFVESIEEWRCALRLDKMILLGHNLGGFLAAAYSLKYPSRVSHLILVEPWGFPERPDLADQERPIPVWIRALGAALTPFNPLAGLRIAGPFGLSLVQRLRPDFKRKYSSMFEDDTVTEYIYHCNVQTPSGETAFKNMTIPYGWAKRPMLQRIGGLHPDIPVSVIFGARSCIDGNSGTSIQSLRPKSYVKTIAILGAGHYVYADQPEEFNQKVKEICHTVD

[2] = target: T2, m^solCgi-58 (mouse, UniProt Q9DBL9 2-351, S239E); assay: NMR titration; 1H-15N HSQC of 50 μM 15N labeled A-Fabp with 0, 10, 25, 50, 100 and 200 μM m^solCgi-58; 15 mM Na2HPO4/KH2PO4, pH 7.0, 300 mM NaCl, 1 mM DTT, 1 mM EDTA; 298 K; conditions: both partners purified
T2 construct: mouse Cgi-58, Lys-2–Asp-351, with S239E; preceded by a TEV protease cleavage site and cleaved by TEV; used for NMR experiments only; also called mCgi-58^S239E; cgi-58_S239E variant with increased solubility; source: E. coli BL21(DE3), co-expressed with the chaperone Tig, purified (His-Trap, TEV cleavage, Superdex 200); not shown: His tag, N-terminal, cleaved; SUMO, N-terminal, cleaved
T2 sequence (looked up): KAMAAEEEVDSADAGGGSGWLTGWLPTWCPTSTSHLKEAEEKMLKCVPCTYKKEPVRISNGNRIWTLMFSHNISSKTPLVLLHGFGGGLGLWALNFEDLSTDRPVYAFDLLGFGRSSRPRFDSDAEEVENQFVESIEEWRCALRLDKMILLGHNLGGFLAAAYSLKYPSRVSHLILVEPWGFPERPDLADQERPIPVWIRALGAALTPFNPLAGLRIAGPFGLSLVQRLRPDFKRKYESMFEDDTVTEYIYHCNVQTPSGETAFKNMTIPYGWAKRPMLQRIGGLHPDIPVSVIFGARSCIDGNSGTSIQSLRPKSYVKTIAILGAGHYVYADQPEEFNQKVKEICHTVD

B1: Strep-tagged A-Fabp (natural protein, human, UniProt P15090 1-132, looked up)
chain: MCDAFVGTWKLVSSENFDDYMKEVGVGFATRKVAGMAKPNMIISVNGDVITIKSESTFKNTEISFILGQEFDEVTADDRKVKSTITLDGGVLVHVQKWDGKSTTIKRKREDDKLVVECVMKGVTSTRVYERA
modifications: 15N (and 13C) labelled in the NMR experiments
notes: residue numbers start with methionine as the first amino acid; vector pASK-IBA5plus; also called Strep-A-Fabp; source: E. coli BL21(DE3), purified (Strep-Tactin)
[1]
  Kd: 192 ± 22 µM
[2]
  binding result: binds
